How the values were obtained:
[1] = molecular target: cation-independent mannose-6-phosphate receptor (CI-MPR), recombinant human IGF-II R (human) (UniProt P11717); assay: SPR, CI-MPR immobilized, 1:1 Langmuir global fit
[2] = molecular target: cation-independent mannose-6-phosphate receptor (CI-MPR), recombinant human IGF-II R (human) (UniProt P11717); assay: SPR, CI-MPR immobilized, antibody as analyte, 2-fold dilutions from 500 nM
[3] = molecular target: cation-independent mannose-6-phosphate receptor (CI-MPR), recombinant human IGF-II R (human) (UniProt P11717); assay: SPR (Biacore T200), CI-MPR immobilized on a CM5 chip, antibody as analyte in 2-fold dilutions from 500 nM to 0.98 nM
[4] = molecular target: cation-independent mannose-6-phosphate receptor (CI-MPR), recombinant human IGF-II R (human) (UniProt P11717); assay: SPR, CI-MPR immobilized, steady-state fitting
[5] = molecular target: cation-independent mannose-6-phosphate receptor (CI-MPR), recombinant human IGF-II R (human) (UniProt P11717); assay: SPR, CI-MPR immobilized
[6] = molecular target: epidermal growth factor receptor (EGFR) (human) (UniProt P00533); assay: cell-based or functional assay

trastuzumab M6P-glycoform 3 (trastuzumab carrying the M6P tetrasaccharide glycan at the Fc domain) (antibody)
Kd [1]: 28.6 nM
Kd [2]: 30.2 nM
Kd [3]: 28.6 nM

trastuzumab M6P-glycoform 6 (trastuzumab carrying the M6P-Man3GlcNAc2 glycan) (antibody)
Kd [4]: 700 nM

cetuximab M6P-glycoform 10 (cetuximab carrying the bis-phosphorylated heptasaccharide N-glycan) (antibody)
fold affinity against glycoform (9) [5]: 2 fold
Kd [1]: 29.6 nM
Kd [3]: 29.6 nM

cetuximab M6P-glycoform 9 (cetuximab carrying the M6P tetrasaccharide glycan at the Fc domain) (antibody)
Kd [1]: 70.3 nM
Kd [2]: 72.4 nM
Kd [3]: 70.3 nM
degradation of total EGFR in HepG2 cells (Western blot, 48 h, 10 nM antibody) [6]: 57%

trastuzumab M6P-glycoform 7 (trastuzumab carrying the bis-phosphorylated heptasaccharide moiety) (antibody)
fold affinity against glycoform (3) [5]: 4 fold
Kd [1]: 5.4 nM
Kd [3]: 5.4 nM
